Measurements from patent US20220098307A1 (WUHAN YZY BIOPHARMA, published 2022).

T1: human CEA (human, UniProt P06731 35-685)
T1 sequence: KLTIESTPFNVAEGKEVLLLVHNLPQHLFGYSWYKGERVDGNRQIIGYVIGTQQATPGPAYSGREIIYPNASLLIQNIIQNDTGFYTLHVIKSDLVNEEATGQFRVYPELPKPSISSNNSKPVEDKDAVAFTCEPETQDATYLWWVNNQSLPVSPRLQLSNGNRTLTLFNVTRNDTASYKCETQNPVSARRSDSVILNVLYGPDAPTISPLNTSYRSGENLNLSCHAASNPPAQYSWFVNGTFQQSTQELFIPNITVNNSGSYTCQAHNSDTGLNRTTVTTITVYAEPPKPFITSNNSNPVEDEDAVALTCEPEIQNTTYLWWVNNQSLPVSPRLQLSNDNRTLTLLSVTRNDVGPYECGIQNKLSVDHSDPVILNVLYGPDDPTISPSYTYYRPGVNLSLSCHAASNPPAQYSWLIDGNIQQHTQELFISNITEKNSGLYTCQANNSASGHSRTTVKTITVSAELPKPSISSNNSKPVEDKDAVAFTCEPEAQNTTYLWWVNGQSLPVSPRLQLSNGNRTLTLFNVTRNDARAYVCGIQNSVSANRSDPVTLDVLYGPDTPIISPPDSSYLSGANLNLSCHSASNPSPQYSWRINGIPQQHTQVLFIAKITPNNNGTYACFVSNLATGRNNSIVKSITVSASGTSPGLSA


Experiments:
human CEA = biological target: T1, human CEA; experiment: flow cytometry, human tumor cells (table of the CEA series)
Source text: 1) Cell preparation: T cells isolated from CD3-positive human whole blood were used for a CD3 end affinity detection of multifunctional antibody molecule; positive tumor cells of corresponding antigen were used for detecting affinity of tumor antigen; for example, CD38-positive MM. 1S cells (purchased from the Cell Resource Center of Shanghai Institutes for Biological Sciences, Chinese Academy of Sciences) or RPMI 8226 cells (purchased from the Cell Resource Center of Shanghai Institutes for Biological Sciences, Chinese Academy of Sciences) were used for CD38 antigen detection, and PD-L1 positive H358 cells (purchased from the Cell Resource Center of Shanghai Institutes for Biological Sciences, Chinese Academy of Sciences) were used for PD-L1 antigen detection, and so on. The cells were resuspended with 1% FBS-PBS, adjusted to a density of 4×10⁶/ml, and 50 μl of cells were taken from each well, and then plated at 2×10⁵ per well. Cell plating was operated on ice
2) Addition of the antibody: according to the experimental design, the antibody was diluted gradually, and dilution of antibody was operated on ice. For example, the initial concentration of antibody for dilution was 3000 nM, and the antibody was diluted by 3 times with 11 concentration gradients. The diluted antibody was added to a cell well at 50 μl per well, mixed well, and shaked and incubated at 4° C. 1100 rpm/min for 2 h; after washing, the cells were resuspend in 1% FBS-PBS, and a diluted secondary antibody PE anti-human IgG FC (Biolegend, 409304) was added with a final concentration of 8 ug/ml and a volume of 50 μl/well. At the same time, a well only added with cells and secondary antibody was set as a control, the components were mixed well, and incubated under shaking at 1100 rpm/min at 4° C. for 1 h;
5) Data analysis: the data was analyzed by a flow analysis software FlowJo 7.6 thereby obtaining an average fluorescence intensity of the specific antibody concentration, plotted by a Graphpad Prism 5 with the antibody concentration (nM) as an abscissa and the average fluorescence intensity as an ordinate; the EC50 value was calculated by the method of One site—Specific binding, and the EC50 value indicated the cell affinity of the antibody to the corresponding target antigen.

Human CD3ε = biological target: T2, Human CD3ε (human, UniProt P07766 23-126); experiment: flow cytometry, human T cells
T2 construct: CD3 on T cells isolated from human whole blood
In short: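 First, cells were plated on ice at 2×10⁵ per well; second, antibody dilutions (top 3000 nM, 3-fold steps) were added for 2 h at 4° C; third, after washing, PE anti-human IgG Fc (final 8 ug/ml) was added for 1 h at 4° C. EC50 was then fitted from MFI versus concentration.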

Row | Binder | binding result (human CEA) | EC50 (Human CD3ε)
1 | M3IC-G2 (bispecific antibody, structure 3 isotype control; CH2 G2CH2) chain 1: EVKLDETGGGLVQPGRPMKLSCVASGFTFSDYWMNWVRQSPEKGLEWVAQIRNKPYNYETYYSDSVKGRFTISRDDSKSSVYLQMNNLRVEDMGIYYCTGSYYGMDYWGQGTSVTVSSASTKGPSVFPLAPSSKSTSGGTAALGCLVKDYFPEPVTVSWNSGALTSGVHTFPAVLQSSGLYSLSSVVTVPSSSLGTQTYICNVNHKPSNTKVDKKVEPKSCGGGGSGGGGSQVQLVESGGGVVQPGRSLRLSCAASGFTFSTYAMNWVRQAPGKGLEWVARIRSKYNNYATYYADSVKDRFTISRDDSKNTLYLQMNSLRAEDTAVYYCARHGNFGNSYVSWFAYWGQGTLVTVSSASVAAPSVFIFPPSDEQLKSGTASVVCLLNNFYPREAKVQWKVDNALQSGNSQESVTEQDSKDSTYSLSSTLTLSKADYEKHKVYACEVTHQGLSSPVTKSFNRGECDKTHTCPPCPAPPVAGPSVFLFPPKPKDTLMISRTPEVTCVVVDVSHEDPEVQFNWYVDGVEVHNAKTKPREEQFNSTFRVVSVLTVVHQDWLNGKEYKCKVSNKGLPAPIEKTISKTKGQPREPQVYTLPPCRDELTKNQVSLWCLVKGFYPSDIAVEWESNGQPENNYKTTPPVLDSDGSFFLYSKLTVDKSRWQQGNVFSCSVMHEALHNHYTQKSLSLSPGK chain 2: QTVVTQEPSLTVSPGGTVTLTCRSSTGAVTTSNYANWVQQKPGQAPRGLIGGTNKRAPGVPARFSGSLLGGKAALTLSGVQPEDEAEYYCALWYSNLWVFGGGTKVEIKSSASTKGPSVFPLAPSSKSTSGGTAALGCLVKDYFPEPVTVSWNSGALTSGVHTFPAVLQSSGLYSLSSVVTVPSSSLGTQTYICNVNHKPSNTKVDKKVEPKSC heavy: EVKLDETGGGLVQPGRPMKLSCVASGFTFSDYWMNWVRQSPEKGLEWVAQIRNKPYNYETYYSDSVKGRFTISRDDSKSSVYLQMNNLRVEDMGIYYCTGSYYGMDYWGQGTSVTVSSASTKGPSVFPLAPSSKSTSGGTAALGCLVKDYFPEPVTVSWNSGALTSGVHTFPAVLQSSGLYSLSSVVTVPSSSLGTQTYICNVNHKPSNTKVDKKVEPKSCDKTHTCPPCPAPPVAGPSVFLFPPKPKDTLMISRTPEVTCVVVDVSHEDPEVQFNWYVDGVEVHNAKTKPREEQFNSTFRVVSVLTVVHQDWLNGKEYKCKVSNKGLPAPIEKTISKTKGQPREPQVCTLPPSRDELTKNQVSLSCAVKGFYPSDIAVEWESNGQPENNYKTTPPVLDSDGSFFLVSKLTVDKSRWQQGNVFSCSVMHEALHNRFTQKSLSLSPGK light: DVVMTQTPLSLPVSLGDQASISCRSSQSLVHSNGNTYLRWYLQKPGQSPKVLIYKVSNRFSGVPDRFSGSGSGTDFTLKISRVEAEDLGVYFCSQSTHVPWTFGGGTKLEIKRTVAAPSVFIFPPSDEQLKSGTASVVCLLNNFYPREAKVQWKVDNALQSGNSQESVTEQDSKDSTYSLSSTLTLSKADYEKHKVYACEVTHQGLSSPVTKSFNRGEC | no binding | 701 nM
2 | M3IC-DG2 (bispecific antibody, structure 3 isotype control; CH2 DG2CH2) chain 1: EVKLDETGGGLVQPGRPMKLSCVASGFTFSDYWMNWVRQSPEKGLEWVAQIRNKPYNYETYYSDSVKGRFTISRDDSKSSVYLQMNNLRVEDMGIYYCTGSYYGMDYWGQGTSVTVSSASTKGPSVFPLAPSSKSTSGGTAALGCLVKDYFPEPVTVSWNSGALTSGVHTFPAVLQSSGLYSLSSVVTVPSSSLGTQTYICNVNHKPSNTKVDKKVEPKSCGGGGSGGGGSQVQLVESGGGVVQPGRSLRLSCAASGFTFSTYAMNWVRQAPGKGLEWVARIRSKYNNYATYYADSVKDRFTISRDDSKNTLYLQMNSLRAEDTAVYYCARHGNFGNSYVSWFAYWGQGTLVTVSSASVAAPSVFIFPPSDEQLKSGTASVVCLLNNFYPREAKVQWKVDNALQSGNSQESVTEQDSKDSTYSLSSTLTLSKADYEKHKVYACEVTHQGLSSPVTKSFNRGECDKTHTCPPCPAPPVAGPSVFLFPPKPKDTLMISRTPEVTCVVVAVSHEDPEVQFNWYVDGVEVHNAKTKPREEQFNSTFRVVSVLTVVHQDWLNGKEYKCKVSNKGLPAPIEKTISKTKGQPREPQVYTLPPCRDELTKNQVSLWCLVKGFYPSDIAVEWESNGQPENNYKTTPPVLDSDGSFFLYSKLTVDKSRWQQGNVFSCSVMHEALHNHYTQKSLSLSPGK chain 2: QTVVTQEPSLTVSPGGTVTLTCRSSTGAVTTSNYANWVQQKPGQAPRGLIGGTNKRAPGVPARFSGSLLGGKAALTLSGVQPEDEAEYYCALWYSNLWVFGGGTKVEIKSSASTKGPSVFPLAPSSKSTSGGTAALGCLVKDYFPEPVTVSWNSGALTSGVHTFPAVLQSSGLYSLSSVVTVPSSSLGTQTYICNVNHKPSNTKVDKKVEPKSC heavy: EVKLDETGGGLVQPGRPMKLSCVASGFTFSDYWMNWVRQSPEKGLEWVAQIRNKPYNYETYYSDSVKGRFTISRDDSKSSVYLQMNNLRVEDMGIYYCTGSYYGMDYWGQGTSVTVSSASTKGPSVFPLAPSSKSTSGGTAALGCLVKDYFPEPVTVSWNSGALTSGVHTFPAVLQSSGLYSLSSVVTVPSSSLGTQTYICNVNHKPSNTKVDKKVEPKSCDKTHTCPPCPAPPVAGPSVFLFPPKPKDTLMISRTPEVTCVVVAVSHEDPEVQFNWYVDGVEVHNAKTKPREEQFNSTFRVVSVLTVVHQDWLNGKEYKCKVSNKGLPAPIEKTISKTKGQPREPQVCTLPPSRDELTKNQVSLSCAVKGFYPSDIAVEWESNGQPENNYKTTPPVLDSDGSFFLVSKLTVDKSRWQQGNVFSCSVMHEALHNRFTQKSLSLSPGK light: DVVMTQTPLSLPVSLGDQASISCRSSQSLVHSNGNTYLRWYLQKPGQSPKVLIYKVSNRFSGVPDRFSGSGSGTDFTLKISRVEAEDLGVYFCSQSTHVPWTFGGGTKLEIKRTVAAPSVFIFPPSDEQLKSGTASVVCLLNNFYPREAKVQWKVDNALQSGNSQESVTEQDSKDSTYSLSSTLTLSKADYEKHKVYACEVTHQGLSSPVTKSFNRGEC | no binding | 710 nM
3 | M3IC-AG2 (bispecific antibody, structure 3 isotype control; CH2 AG2CH2) chain 1: EVKLDETGGGLVQPGRPMKLSCVASGFTFSDYWMNWVRQSPEKGLEWVAQIRNKPYNYETYYSDSVKGRFTISRDDSKSSVYLQMNNLRVEDMGIYYCTGSYYGMDYWGQGTSVTVSSASTKGPSVFPLAPSSKSTSGGTAALGCLVKDYFPEPVTVSWNSGALTSGVHTFPAVLQSSGLYSLSSVVTVPSSSLGTQTYICNVNHKPSNTKVDKKVEPKSCGGGGSGGGGSQVQLVESGGGVVQPGRSLRLSCAASGFTFSTYAMNWVRQAPGKGLEWVARIRSKYNNYATYYADSVKDRFTISRDDSKNTLYLQMNSLRAEDTAVYYCARHGNFGNSYVSWFAYWGQGTLVTVSSASVAAPSVFIFPPSDEQLKSGTASVVCLLNNFYPREAKVQWKVDNALQSGNSQESVTEQDSKDSTYSLSSTLTLSKADYEKHKVYACEVTHQGLSSPVTKSFNRGECDKTHTCPPAPAPPVAGPSVFLFPPKPKDTLMISRTPEVTCVVVDVSHEDPEVQFNWYVDGVEVHNAKTKPREEQFNSTFRVVSVLTVVHQDWLNGKEYKCKVSNKGLPAPIEKTISKTKGQPREPQVYTLPPCRDELTKNQVSLWCLVKGFYPSDIAVEWESNGQPENNYKTTPPVLDSDGSFFLYSKLTVDKSRWQQGNVFSCSVMHEALHNHYTQKSLSLSPGK chain 2: QTVVTQEPSLTVSPGGTVTLTCRSSTGAVTTSNYANWVQQKPGQAPRGLIGGTNKRAPGVPARFSGSLLGGKAALTLSGVQPEDEAEYYCALWYSNLWVFGGGTKVEIKSSASTKGPSVFPLAPSSKSTSGGTAALGCLVKDYFPEPVTVSWNSGALTSGVHTFPAVLQSSGLYSLSSVVTVPSSSLGTQTYICNVNHKPSNTKVDKKVEPKSC heavy: EVKLDETGGGLVQPGRPMKLSCVASGFTFSDYWMNWVRQSPEKGLEWVAQIRNKPYNYETYYSDSVKGRFTISRDDSKSSVYLQMNNLRVEDMGIYYCTGSYYGMDYWGQGTSVTVSSASTKGPSVFPLAPSSKSTSGGTAALGCLVKDYFPEPVTVSWNSGALTSGVHTFPAVLQSSGLYSLSSVVTVPSSSLGTQTYICNVNHKPSNTKVDKKVEPKSCDKTHTCPPAPAPPVAGPSVFLFPPKPKDTLMISRTPEVTCVVVDVSHEDPEVQFNWYVDGVEVHNAKTKPREEQFNSTFRVVSVLTVVHQDWLNGKEYKCKVSNKGLPAPIEKTISKTKGQPREPQVCTLPPSRDELTKNQVSLSCAVKGFYPSDIAVEWESNGQPENNYKTTPPVLDSDGSFFLVSKLTVDKSRWQQGNVFSCSVMHEALHNRFTQKSLSLSPGK light: DVVMTQTPLSLPVSLGDQASISCRSSQSLVHSNGNTYLRWYLQKPGQSPKVLIYKVSNRFSGVPDRFSGSGSGTDFTLKISRVEAEDLGVYFCSQSTHVPWTFGGGTKLEIKRTVAAPSVFIFPPSDEQLKSGTASVVCLLNNFYPREAKVQWKVDNALQSGNSQESVTEQDSKDSTYSLSSTLTLSKADYEKHKVYACEVTHQGLSSPVTKSFNRGEC | no binding | 674 nM
